Measurements published in patent US20140057284A1, “PHOTOLUMINESCENT MOLECULAR COMPLEX AND METHOD FOR DETERMINING OF THE CONCENTRATION OF SAID MOLECULAR COMPLEX” (priority 2011, published 2014).

Experiments:
Assay in all cases: biochemical
Conditions in all cases: read-out: Percentages of residual activities of the kinase reaction
[1] = biological target: ABL (Homo sapiens, UniProt P00519)
Experimental: (§1) Selectivity testing (Table 2) was performed on the commercial basis at the Division of Signal Transduction Therapy, University of Dundee. ATP concentrations that were used in testing were close to the Km value of the kinase.

[2] = biological target: BRK (Homo sapiens, UniProt Q13882)
Experimental: as §1

[3] = biological target: BRSK1 (Homo sapiens, UniProt Q8TDC3)
Experimental: as §1

[4] = biological target: BRSK2 (Homo sapiens, UniProt Q8IWQ3)
Experimental: as §1

[5] = biological target: CHK2 (Homo sapiens, UniProt O96017)
Experimental: as §1

[6] = biological target: CLK2 (Homo sapiens, UniProt P49760)
Experimental: as §1

[7] = biological target: DYRK1A (Homo sapiens, UniProt Q13627)
Experimental: as §1

[8] = biological target: DYRK3 (Homo sapiens, UniProt O43781)
Experimental: as §1

[9] = biological target: EPH-A2 (Homo sapiens, UniProt P29317)
Experimental: as §1

[10] = biological target: EPH-B2 (Homo sapiens, UniProt P29323)
Experimental: as §1

[11] = biological target: EPH-B4 (Homo sapiens, UniProt P54760)
Experimental: as §1

[12] = biological target: ERK2 (Homo sapiens, UniProt P28482)
Experimental: as §1

[13] = biological target: HIPK2 (Homo sapiens, UniProt Q9H2X6)
Experimental: as §1

[14] = biological target: IGF-1R (Homo sapiens, UniProt P08069)
Experimental: as §1

[15] = biological target: IKKe (Homo sapiens, UniProt Q14164)
Experimental: as §1

[16] = biological target: JAK2 (Homo sapiens, UniProt O60674)
Experimental: as §1

[17] = biological target: LKB1 (Homo sapiens, UniProt Q15831)
Experimental: as §1

[18] = biological target: MAPKAP-K3 (Homo sapiens, UniProt Q16644)
Experimental: as §1

[19] = biological target: MARK1 (Homo sapiens, UniProt Q9P0L2)
Experimental: as §1

[20] = biological target: MEKK1 (Homo sapiens, UniProt Q13233)
Experimental: as §1

[21] = biological target: MLK3 (Homo sapiens, UniProt Q16584)
Experimental: as §1

[22] = biological target: NEK6 (Homo sapiens, UniProt Q9HC98)
Experimental: as §1

[23] = biological target: NUAK1 (Homo sapiens, UniProt O60285)
Experimental: as §1

[24] = biological target: PAK4 (Homo sapiens, UniProt O96013)
Experimental: as §1

[25] = biological target: PAK5 (Homo sapiens, UniProt Q9P286)
Experimental: as §1

[26] = biological target: PIM2 (Homo sapiens, UniProt Q9P1W9)
Experimental: as §1

[27] = biological target: PKCa (Homo sapiens, UniProt P17252)
Experimental: as §1

[28] = biological target: PRAK (Homo sapiens, UniProt Q8IW41)
Experimental: as §1

[29] = biological target: RIPK2 (Homo sapiens, UniProt O43353)
Experimental: as §1

[30] = biological target: RSK2 (Homo sapiens, UniProt P51812)
Experimental: as §1

[31] = biological target: STK33 (Homo sapiens, UniProt Q9BYT3)
Experimental: as §1

[32] = biological target: TAK1 (Homo sapiens, UniProt O43318)
Experimental: as §1

[33] = biological target: TAO1 (Homo sapiens, UniProt Q7L7X3)
Experimental: as §1

[34] = biological target: TIE2 (Homo sapiens, UniProt Q02763)
Experimental: as §1

[35] = biological target: TrkA (Homo sapiens, UniProt P04629)
Experimental: as §1

[36] = biological target: YES1 (Homo sapiens, UniProt P07947)
Experimental: as §1

[37] = biological target: p38a MAPK (Homo sapiens, UniProt Q16539)
Experimental: as §1

MLK3, sequence (Q16584 whole entry, species assumed): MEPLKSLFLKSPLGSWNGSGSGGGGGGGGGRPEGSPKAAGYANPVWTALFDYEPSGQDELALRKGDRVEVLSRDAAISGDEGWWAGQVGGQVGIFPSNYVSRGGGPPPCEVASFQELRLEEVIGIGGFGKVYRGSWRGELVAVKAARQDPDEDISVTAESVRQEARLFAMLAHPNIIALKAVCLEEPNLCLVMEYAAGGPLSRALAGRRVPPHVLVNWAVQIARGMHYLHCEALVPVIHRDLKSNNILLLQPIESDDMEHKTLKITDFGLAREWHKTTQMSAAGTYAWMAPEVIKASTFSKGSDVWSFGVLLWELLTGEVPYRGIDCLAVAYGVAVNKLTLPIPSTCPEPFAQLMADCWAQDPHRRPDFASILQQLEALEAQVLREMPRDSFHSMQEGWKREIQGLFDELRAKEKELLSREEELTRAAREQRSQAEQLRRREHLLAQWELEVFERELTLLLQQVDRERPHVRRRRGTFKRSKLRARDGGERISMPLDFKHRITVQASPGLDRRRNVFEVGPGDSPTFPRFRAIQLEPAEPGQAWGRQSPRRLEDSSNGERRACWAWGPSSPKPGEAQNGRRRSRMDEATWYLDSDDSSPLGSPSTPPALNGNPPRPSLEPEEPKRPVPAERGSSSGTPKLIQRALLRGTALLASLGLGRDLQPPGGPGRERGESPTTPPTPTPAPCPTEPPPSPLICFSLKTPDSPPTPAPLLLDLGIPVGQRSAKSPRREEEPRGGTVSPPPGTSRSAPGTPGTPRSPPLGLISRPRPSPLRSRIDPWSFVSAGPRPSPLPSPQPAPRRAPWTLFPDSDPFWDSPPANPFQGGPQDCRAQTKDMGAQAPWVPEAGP
EPH-B4, sequence (P54760 16-987, species assumed): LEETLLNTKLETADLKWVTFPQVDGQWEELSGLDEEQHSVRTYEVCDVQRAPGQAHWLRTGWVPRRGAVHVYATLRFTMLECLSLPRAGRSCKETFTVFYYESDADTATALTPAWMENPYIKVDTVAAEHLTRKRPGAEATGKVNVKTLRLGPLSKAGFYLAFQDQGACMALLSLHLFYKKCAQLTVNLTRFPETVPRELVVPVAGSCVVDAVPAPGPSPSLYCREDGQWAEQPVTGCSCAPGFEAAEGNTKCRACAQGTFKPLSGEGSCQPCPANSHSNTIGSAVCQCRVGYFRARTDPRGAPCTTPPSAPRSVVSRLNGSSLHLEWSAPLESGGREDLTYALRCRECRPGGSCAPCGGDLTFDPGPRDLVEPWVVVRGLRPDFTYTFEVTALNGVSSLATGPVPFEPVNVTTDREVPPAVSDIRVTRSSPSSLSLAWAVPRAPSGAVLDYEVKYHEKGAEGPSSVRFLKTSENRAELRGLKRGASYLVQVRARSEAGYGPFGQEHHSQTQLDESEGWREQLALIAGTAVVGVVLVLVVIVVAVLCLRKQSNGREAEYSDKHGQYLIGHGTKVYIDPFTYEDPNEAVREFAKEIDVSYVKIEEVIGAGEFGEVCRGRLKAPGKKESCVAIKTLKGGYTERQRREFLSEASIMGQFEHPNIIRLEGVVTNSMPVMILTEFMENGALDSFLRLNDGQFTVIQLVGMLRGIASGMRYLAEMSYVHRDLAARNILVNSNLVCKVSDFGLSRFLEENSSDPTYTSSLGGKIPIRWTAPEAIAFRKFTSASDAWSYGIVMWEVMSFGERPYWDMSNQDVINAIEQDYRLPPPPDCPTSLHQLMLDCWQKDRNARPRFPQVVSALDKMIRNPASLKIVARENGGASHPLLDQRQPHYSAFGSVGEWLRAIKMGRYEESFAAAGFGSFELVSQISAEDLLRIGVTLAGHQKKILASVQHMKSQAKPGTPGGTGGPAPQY
MARK1, sequence (Q9P0L2 whole entry, species assumed): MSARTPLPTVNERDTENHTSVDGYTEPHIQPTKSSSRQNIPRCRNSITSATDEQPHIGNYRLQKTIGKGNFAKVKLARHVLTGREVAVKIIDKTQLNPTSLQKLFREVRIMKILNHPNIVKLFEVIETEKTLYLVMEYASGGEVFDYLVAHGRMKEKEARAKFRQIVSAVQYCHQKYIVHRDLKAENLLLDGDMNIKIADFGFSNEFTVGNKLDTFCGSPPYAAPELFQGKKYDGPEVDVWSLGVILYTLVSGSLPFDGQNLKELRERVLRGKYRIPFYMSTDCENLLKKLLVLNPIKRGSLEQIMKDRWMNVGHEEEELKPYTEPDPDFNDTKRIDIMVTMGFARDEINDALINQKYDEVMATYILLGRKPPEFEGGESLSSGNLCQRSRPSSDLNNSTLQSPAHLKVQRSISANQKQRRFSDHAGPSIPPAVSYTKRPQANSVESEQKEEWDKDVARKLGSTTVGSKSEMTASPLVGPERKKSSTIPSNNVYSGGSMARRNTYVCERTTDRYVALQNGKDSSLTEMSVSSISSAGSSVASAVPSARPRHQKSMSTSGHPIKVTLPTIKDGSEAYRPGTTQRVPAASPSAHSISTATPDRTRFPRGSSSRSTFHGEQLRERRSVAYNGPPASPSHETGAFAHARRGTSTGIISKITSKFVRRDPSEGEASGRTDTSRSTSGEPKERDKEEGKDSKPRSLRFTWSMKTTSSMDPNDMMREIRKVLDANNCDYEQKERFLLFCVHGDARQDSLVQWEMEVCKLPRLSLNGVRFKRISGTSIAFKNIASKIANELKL
PAK4, sequence (O96013 whole entry, species assumed): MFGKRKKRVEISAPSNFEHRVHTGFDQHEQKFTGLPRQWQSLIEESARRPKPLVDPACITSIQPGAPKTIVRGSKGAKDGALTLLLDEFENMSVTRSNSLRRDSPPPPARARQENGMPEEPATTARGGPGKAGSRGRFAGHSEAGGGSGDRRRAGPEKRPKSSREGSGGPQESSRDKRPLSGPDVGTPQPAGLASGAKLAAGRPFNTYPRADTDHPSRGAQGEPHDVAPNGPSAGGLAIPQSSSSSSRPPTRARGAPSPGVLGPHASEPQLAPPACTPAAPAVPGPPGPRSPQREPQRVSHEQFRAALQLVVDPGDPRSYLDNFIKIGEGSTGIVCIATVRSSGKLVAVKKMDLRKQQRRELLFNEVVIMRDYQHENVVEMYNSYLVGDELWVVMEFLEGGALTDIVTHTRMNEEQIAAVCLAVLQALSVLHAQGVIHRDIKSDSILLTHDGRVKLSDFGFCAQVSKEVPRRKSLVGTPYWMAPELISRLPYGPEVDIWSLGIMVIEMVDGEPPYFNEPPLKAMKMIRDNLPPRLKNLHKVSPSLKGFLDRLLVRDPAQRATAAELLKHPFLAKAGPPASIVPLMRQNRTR
IGF-1R, sequence (P08069 31-1367, species assumed): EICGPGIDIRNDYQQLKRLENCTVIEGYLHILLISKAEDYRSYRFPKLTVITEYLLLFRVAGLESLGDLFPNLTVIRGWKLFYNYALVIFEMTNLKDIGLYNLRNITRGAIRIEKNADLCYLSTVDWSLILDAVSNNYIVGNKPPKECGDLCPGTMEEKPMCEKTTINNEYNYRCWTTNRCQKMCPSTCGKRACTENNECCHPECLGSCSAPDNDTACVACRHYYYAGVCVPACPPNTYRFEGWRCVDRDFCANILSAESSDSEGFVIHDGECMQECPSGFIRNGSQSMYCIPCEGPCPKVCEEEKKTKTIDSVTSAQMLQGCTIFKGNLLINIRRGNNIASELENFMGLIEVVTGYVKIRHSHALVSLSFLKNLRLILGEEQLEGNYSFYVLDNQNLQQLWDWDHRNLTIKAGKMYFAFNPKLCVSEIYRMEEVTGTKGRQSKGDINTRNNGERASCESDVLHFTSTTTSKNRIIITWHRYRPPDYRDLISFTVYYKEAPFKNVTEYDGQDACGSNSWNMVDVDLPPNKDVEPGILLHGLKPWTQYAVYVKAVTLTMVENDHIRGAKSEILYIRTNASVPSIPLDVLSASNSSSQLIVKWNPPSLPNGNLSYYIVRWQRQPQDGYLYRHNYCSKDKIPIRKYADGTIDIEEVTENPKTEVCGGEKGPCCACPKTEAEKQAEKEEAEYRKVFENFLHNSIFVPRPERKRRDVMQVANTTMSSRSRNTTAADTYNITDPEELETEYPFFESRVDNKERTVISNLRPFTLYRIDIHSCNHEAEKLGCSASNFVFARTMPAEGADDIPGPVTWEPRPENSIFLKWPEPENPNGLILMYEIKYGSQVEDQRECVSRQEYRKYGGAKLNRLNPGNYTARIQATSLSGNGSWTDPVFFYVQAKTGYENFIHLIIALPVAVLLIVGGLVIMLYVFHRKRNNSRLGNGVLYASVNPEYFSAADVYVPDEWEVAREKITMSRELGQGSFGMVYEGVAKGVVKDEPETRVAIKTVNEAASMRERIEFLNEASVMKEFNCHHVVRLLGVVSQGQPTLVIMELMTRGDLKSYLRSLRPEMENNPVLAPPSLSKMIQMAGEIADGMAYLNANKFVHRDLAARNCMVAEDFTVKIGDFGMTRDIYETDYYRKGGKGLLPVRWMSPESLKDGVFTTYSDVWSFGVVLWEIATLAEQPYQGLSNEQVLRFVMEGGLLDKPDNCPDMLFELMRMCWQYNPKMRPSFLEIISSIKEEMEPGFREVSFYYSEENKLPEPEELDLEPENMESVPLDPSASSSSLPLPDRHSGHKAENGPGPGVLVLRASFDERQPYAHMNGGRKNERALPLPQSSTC
CLK2, sequence (P49760 whole entry, species assumed): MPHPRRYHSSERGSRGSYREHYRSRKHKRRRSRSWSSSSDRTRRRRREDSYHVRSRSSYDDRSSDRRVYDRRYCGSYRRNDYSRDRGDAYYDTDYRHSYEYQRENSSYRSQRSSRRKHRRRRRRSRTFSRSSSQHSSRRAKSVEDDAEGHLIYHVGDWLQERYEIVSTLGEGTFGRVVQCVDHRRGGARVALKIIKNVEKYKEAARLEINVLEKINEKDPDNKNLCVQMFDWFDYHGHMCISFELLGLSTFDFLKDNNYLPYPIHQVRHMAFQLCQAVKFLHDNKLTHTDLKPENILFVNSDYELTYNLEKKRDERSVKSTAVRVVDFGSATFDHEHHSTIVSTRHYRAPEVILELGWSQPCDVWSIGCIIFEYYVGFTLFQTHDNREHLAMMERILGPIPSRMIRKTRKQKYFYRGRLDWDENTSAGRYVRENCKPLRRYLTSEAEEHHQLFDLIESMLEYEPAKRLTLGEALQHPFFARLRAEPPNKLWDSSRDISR

CN(C)c1ccc2c(c1)Oc1cc(N(C)C)ccc1C21OC(=O)c2cc(C(=O)NCCCC[C@@H](NC(=O)[C@@H](CCCNC(=N)N)NC(=O)[C@@H](CCCNC(=N)N)NC(=O)[C@@H](CCCNC(=N)N)NC(=O)[C@@H](CCCNC(=N)N)NC(=O)[C@@H](CCCNC(=N)N)NC(=O)[C@@H](CCCNC(=N)N)NC(=O)CCCCCNC(=O)[C@@H](CCCNC(=N)N)NC(=O)CCCCCNC(=O)c3ccc(-c4ccnc(N)n4)s3)C(N)=O)ccc21 [ARC-669]
remaining activity at 1 µM [1]: 88% | remaining activity at 1 µM [2]: 100% | remaining activity at 1 µM [3]: 44% | remaining activity at 1 µM [4]: 77% | remaining activity at 1 µM [5]: 28% | remaining activity at 1 µM [6]: 1% | remaining activity at 1 µM [7]: 27% | remaining activity at 1 µM [8]: 18% | remaining activity at 1 µM [9]: 98% | remaining activity at 1 µM [10]: 96% | remaining activity at 1 µM [11]: 98% | remaining activity at 1 µM [12]: 80% | remaining activity at 1 µM [13]: 63% | remaining activity at 1 µM [14]: 38% | remaining activity at 1 µM [15]: 37% | remaining activity at 1 µM [16]: 80% | remaining activity at 1 µM [17]: 101% | remaining activity at 1 µM [18]: 31% | remaining activity at 1 µM [19]: 65% | remaining activity at 1 µM [20]: 19% | remaining activity at 1 µM [21]: 70% | remaining activity at 1 µM [22]: 71% | remaining activity at 1 µM [23]: 12% | remaining activity at 1 µM [24]: 32% | remaining activity at 1 µM [25]: 18% | remaining activity at 1 µM [26]: 15% | remaining activity at 1 µM [27]: 15% | remaining activity at 1 µM [28]: 63% | remaining activity at 1 µM [29]: 47% | remaining activity at 1 µM [30]: 4% | remaining activity at 1 µM [31]: 76% | remaining activity at 1 µM [32]: 13% | remaining activity at 1 µM [33]: 94% | remaining activity at 1 µM [34]: 86% | remaining activity at 1 µM [35]: 101% | remaining activity at 1 µM [36]: 64% | remaining activity at 1 µM [37]: 55%
